According to patent US20260056186A1 (JIANGSU HENGRUI PHARMACEUTICALS, published 2026):

T1: APRIL (Acro Biosystems, Cat: APL-H52D1) (UniProt O75888 115-250, limits assumed)
T1 construct: also called ARPIL
T1 sequence (looked up): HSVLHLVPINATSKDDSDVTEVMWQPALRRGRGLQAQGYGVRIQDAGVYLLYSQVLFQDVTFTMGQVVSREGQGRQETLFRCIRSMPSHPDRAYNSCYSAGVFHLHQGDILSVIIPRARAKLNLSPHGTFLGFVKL


Experiments:
[1] = target: T1, APRIL (Acro Biosystems, Cat: APL-H52D1); experiment: ELISA, APRIL coated at 1 ug/mL, anti-human Fc-HRP, OD450
Experimental: (§1) The capabilities of B613301, B613302, and B613303, which are fusion proteins of anifrolumab and TACI-BCMA, to bind to BAFF and APRIL were assessed by ELISA as follows: [0548] BAFF (PeproTech, Cat: 310-13) or ARPIL (Acro Biosystems, Cat: APL-H52D1) was diluted to 1 μg/mL with PBS, and a 96-well plate (Costar, Cat: 3590) was coated with the dilution overnight at 4° C. The plate was washed with PBST and blocked with Blocking Buffer (PBST containing 1% BSA) at 37° C. for 1 h. The plate was tapped. The test antibodies were diluted with Blocking Buffer. Incubation was performed at 37° C. for 1.5 h. The plate was washed with PBST. An HRP-mouse anti-human Fc antibody (GenScript, Cat: A01854-200) was diluted with Blocking Buffer. Incubation was performed at 37° C. for 40 min. The plate was washed with PBST. 100 μL of TMB substrate solution (Biopanda, Cat: TMB-S-003) was added, and color development was performed at 37° C. for 3 min. 100 μL of ELISA stop solution (Solarbio, Cat: C1058) was added. OD450 was measured.

[2] = target: T1, APRIL (Acro Biosystems, Cat: APL-H52D1); experiment: ELISA, APRIL coated; reference telitacicept; range told of the 3 fusion proteins, upper end tied to B613301 by Table 8
Experimental: as §1

[3] = target: T1, APRIL (Acro Biosystems, Cat: APL-H52D1); experiment: ELISA, APRIL coated; reference telitacicept; range told of the 3 fusion proteins, lower end tied to B613302 by Table 8
Experimental: as §1

Binder	EC50 [1] [nM]	Emax [1]	EC50 relative to telitacicept [2] [fold]	EC50 relative to telitacicept [3] [fold]
B613301 (other, Fusion protein of anifrolumab and TACI-BCMA) heavy: EVQLVQSGAEVKKPGESLKISCKGSGYIFTNYWIAWVRQMPGKGLESMGIIYPGDSDIRYSPSFQGQVTISADKSITTAYLQWSSLKASDTAMYYCARHDIEGFDYWGRGTLVTVSSASTKGPSVFPLAPSSKSTSGGTAALGCLVKDYFPEPVTVSWNSGALTSGVHTFPAVLQSSGLYSLSSVVTVPSSSLGTQTYICNVNHKPSNTKVDKRVEPKSCDKTHTCPPCPAPEFEGGPSVFLFPPKPKDTLMISRTPEVTCVVVDVSHEDPEVKFNWYVDGVEVHNAKTKPREEQYNSTYRVVSVLTVLHQDWLNGKEYKCKVSNKALPASIEKTISKAKGQPREPQVYTLPPSRDELTKNQVSLTCLVKGFYPSDIAVEWESNGQPENNYKTTPPVLDSDGSFFLYSKLTVDKSRWQQGNVFSCSVMHEALHNHYTQKSLSLSPGK light: EIVLTQSPGTLSLSPGERATLSCRASQSVSSSFFAWYQQKPGQAPRLLIYGASSRATGIPDRLSGSGSGTDFTLTITRLEPEDFAVYYCQQYDSSAITFGQGTRLEIKRTVAAPSVFIFPPSDEQLKSGTASVVCLLNNFYPREAKVQWKVDNALQSGNSQESVTEQDSKDSTYSLSSTLTLSKADYEKHKVYACEVTHQGLSSPVTKSFNRGECGGGGSGGGGSLSCRKEQGKFYDHLLRDCISCASICGQHPKQCAYFCENKLRSPGMLQMAGQCSQNEYFDSLLHACIPCQLRCSSNTPPLTCQRYCNASVTNSVKGTNA	0.201	2.49	0.167	–
B613302 (other, Fusion protein of anifrolumab and TACI-BCMA) heavy: EVQLVQSGAEVKKPGESLKISCKGSGYIFTNYWIAWVRQMPGKGLESMGIIYPGDSDIRYSPSFQGQVTISADKSITTAYLQWSSLKASDTAMYYCARHDIEGFDYWGRGTLVTVSSASTKGPSVFPLAPSSKSTSGGTAALGCLVKDYFPEPVTVSWNSGALTSGVHTFPAVLQSSGLYSLSSVVTVPSSSLGTQTYICNVNHKPSNTKVDKRVEPKSCDKTHTCPPCPAPEFEGGPSVFLFPPKPKDTLMISRTPEVTCVVVDVSHEDPEVKFNWYVDGVEVHNAKTKPREEQYNSTYRVVSVLTVLHQDWLNGKEYKCKVSNKALPASIEKTISKAKGQPREPQVYTLPPSRDELTKNQVSLTCLVKGFYPSDIAVEWESNGQPENNYKTTPPVLDSDGSFFLYSKLTVDKSRWQQGNVFSCSVMHEALHNHYTQKSLSLSPGK light: EIVLTQSPGTLSLSPGERATLSCRASQSVSSSFFAWYQQKPGQAPRLLIYGASSRATGIPDRLSGSGSGTDFTLTITRLEPEDFAVYYCQQYDSSAITFGQGTRLEIKRTVAAPSVFIFPPSDEQLKSGTASVVCLLNNFYPREAKVQWKVDNALQSGNSQESVTEQDSKDSTYSLSSTLTLSKADYEKHKVYACEVTHQGLSSPVTKSFNRGECGGGGSGGGGSMLQMAGQCSQNEYFDSLLHACIPCQLRCSSNTPPLTCQRYCNASVTNSVKGTNALSCRKEQGKFYDHLLRDCISCASICGQHPKQCAYFCENKLRSPG	0.124	2.52	–	0.1
